This is an account of results in paper PMC4765350.

Experiment [1] has as its target BtuC2D2 (E. coli vitamin B12 ABC transporter, core transporter: ATPase + permease) (E. coli) (UniProt P06609).
The target is the same in experiment [2]. Kind of experiment: SPR; fresh (naive) His-BtuC2D2 (1500-2000 RU) immobilised on a Ni-NTA chip, apo FLAG-BtuF injected at 0.1-2 uM; Biacore T200, 25 °C, 50 mM Tris-HCl pH 7.5, 150 mM NaCl, 0.1% LDAO, 15 uL/min. (In SPR one partner is held on a chip, and binding of the other changes the refractive index at the surface.)
For experiment [3] the target is unchanged. Kind of experiment: SPR; His-BtuC2D2 that had worked (100 uM ATP, 1 mM MgCl2) for 7 hours, nucleotides removed, immobilised on a Ni-NTA chip; apo FLAG-BtuF injected at 0.1-2 uM; 25 °C, 50 mM Tris-HCl pH 7.5, 150 mM NaCl, 0.1% LDAO.

Chain of UniProt P06609 (P06609 whole entry, chain 1 of 2): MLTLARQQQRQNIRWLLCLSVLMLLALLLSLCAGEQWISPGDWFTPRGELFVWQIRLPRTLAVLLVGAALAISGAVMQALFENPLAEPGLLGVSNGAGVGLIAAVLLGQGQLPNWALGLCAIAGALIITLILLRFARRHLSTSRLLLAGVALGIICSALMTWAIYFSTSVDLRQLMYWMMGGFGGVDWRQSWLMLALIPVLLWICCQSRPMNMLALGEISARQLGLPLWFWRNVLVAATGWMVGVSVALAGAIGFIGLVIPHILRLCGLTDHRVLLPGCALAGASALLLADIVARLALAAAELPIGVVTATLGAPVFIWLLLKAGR
Chain of UniProt P06609 (P06611 whole entry, chain 2 of 2, further chain): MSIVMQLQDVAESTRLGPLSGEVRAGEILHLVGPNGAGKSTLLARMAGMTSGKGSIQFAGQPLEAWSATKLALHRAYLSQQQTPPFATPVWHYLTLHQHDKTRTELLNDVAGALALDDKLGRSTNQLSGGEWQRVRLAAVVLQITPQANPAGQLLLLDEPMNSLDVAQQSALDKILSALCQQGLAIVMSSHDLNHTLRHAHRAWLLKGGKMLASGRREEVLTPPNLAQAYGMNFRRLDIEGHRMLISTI

B1: BtuF, substrate binding protein (SBP) of the vitamin B12 transport system, FLAG-tagged (natural protein)
chain: APRVITLSPANTELAFAAGITPVGVSSYSDYPPQAQKIEQVSTWQGMNLERIVALKPDLVIAWRGGNAERQVDQLASLGIKVMWVDATSIEQIANALRQLAPWSPQPDKAEQAAQSLLDQYAQLKAQYADKPKKRVFLQFGINPPFTSGKESIQNQVLEVCGGENIFKDSRVPWPQVSREQVLARSPQAIVITGGPDQIPKIKQYWGEQLKIPVIPLTSDWFERASPRIILAAQQLCNALSQVD
Consider B1, for which, in experiment [1], the uptake rate of 57Co vitamin B12 into proteoliposomes, BtuC2D2 that had worked 7 hours against its fresh precursor was 60%. Moreover, in experiment [2], the Kd stood at 0.036 nM, the koff was determined as 1.2e-05 s⁻¹ and the on-rate (kon) was found to be 280000 M⁻¹ s⁻¹. Moreover, in experiment [3], the Kd stood at 0.037 nM, the improvement of BtuF binding of worked over fresh BtuC2D2 was in the range of 35 to 60%, the koff came to 1.1e-05 s⁻¹ and the kon came out at 290000 M⁻¹ s⁻¹.

The term Kd denotes the constant that tells how readily two partners part at equilibrium. The term koff denotes the rate constant with which the complex falls apart. By kon is commonly meant the second-order rate constant of association.
